B1: MDK 14-28 (peptide)
peptide: LLALTSAVAKKKDKV
notes: synthetic 15-mer of the human midkine precursor; also called MDK4; peptide 14-28
B2: MDK 119-133 (peptide)
peptide: ETIRVTKPCTPKTKA
notes: also called MDK18
B3: MDK 9-23 (peptide)
peptide: LTLLALLALTSAVAK
notes: synthetic 15-mer of the human midkine precursor; also called MDK3; peptide 9-23
B4: MDK 64-78 (peptide)
peptide: QTQRIRCRVPCNWKK
notes: also called MDK9
B5: MDK 4-18 (peptide)
peptide: RGFLLLTLLALLALT
notes: synthetic 15-mer of the human midkine precursor; also called MDK2; peptide 4-18
B6: MDK 1-15 (peptide)
peptide: MQHRGFLLLTLLALL
notes: synthetic 15-mer of the human midkine precursor; also called peptide 1-15
B7: MDK 78-92 (peptide)
peptide: KEFGADCKYKFENWG
notes: also called MDK12
B8: MDK 74-88 (peptide)
peptide: CNWKKEFGADCKYKF
notes: also called MDK11
B9: MDK 99-113 (peptide)
peptide: GTKVRQGTLKKARYN
notes: also called MDK15
B10: MDK 89-103 (peptide)
peptide: ENWGACDGGTGTKVR
notes: also called MDK14
B11: MDK 105-119 (peptide)
peptide: GTLKKARYNAQCQET
notes: also called MDK16
B12: MDK 25-39 (peptide)
peptide: KDKVKKGGPGSECAE
notes: also called MDK6
B13: MDK 110-124 (peptide)
peptide: ARYNAQCQETIRVTK
notes: synthetic 15-mer of the human midkine precursor; also called MDK17
B14: MDK 38-52 (peptide)
peptide: AEWAWGPCTPSSKDC
notes: also called MDK7
B15: MDK 70-84 (peptide)
peptide: CRVPCNWKKEFGADC
notes: also called MDK10
B16: MDK 84-98 (peptide)
peptide: CKYKFENWGACDGGT
notes: also called MDK13

Target: HLA-DR7 (DRB1*0701) (human)
Experiment: competition ELISA, tracer biotin-YKL

For B1, which relative binding activity is on record?
The relative binding activity was 590 IC50 ratio to reference peptide.

With B2 as the binder, how does the relative binding activity read?
The relative binding activity was 819 IC50 ratio to reference peptide.

How did the relative binding activity turn out when B3 was run?
The relative binding activity was 13 IC50 ratio to reference peptide.

With B4 as the binder, how does the relative binding activity read?
Its relative binding activity is 2070 IC50 ratio to reference peptide.

With B5 as the binder, how does the relative binding activity read?
The relative binding activity was 20 IC50 ratio to reference peptide.

B6 was tested. Which relative binding activity did it give?
The relative binding activity was 49 IC50 ratio to reference peptide.

Target: HLA-DRB4 (DRB4*0101) (human)
Experiment: competition ELISA, tracer biotin-E2/E168

With B4 as the binder, how does the relative binding activity read?
The relative binding activity was 1160 IC50 ratio to reference peptide.

B5 was tested. Which relative binding activity did it give?
Its relative binding activity is 65 IC50 ratio to reference peptide.

How did the relative binding activity turn out when B6 was run?
Its relative binding activity is 204 IC50 ratio to reference peptide.

Target: HLA-DR3 (DRB1*0301) (human)
Experiment: competition ELISA, tracer biotin-MT 2-16

Which relative binding activity does the source give for B7 here?
The relative binding activity was 1 IC50 ratio to reference peptide.

How did the relative binding activity turn out when B8 was run?
Its relative binding activity is 2 IC50 ratio to reference peptide.

Target: HLA-DR13 (DRB1*1301) (human)
Experiment: competition ELISA, tracer biotin-B1 21-36

With B1 as the binder, how does the relative binding activity read?
Its relative binding activity is 45 IC50 ratio to reference peptide.

For B9, which relative binding activity is on record?
The relative binding activity was 74 IC50 ratio to reference peptide.

Target: HLA-DR15 (DRB1*1501) (human)
Experiment: competition ELISA, tracer biotin-A3 152-166

For B3, which relative binding activity is on record?
The relative binding activity was 5 IC50 ratio to reference peptide.

B5 was tested. Which relative binding activity did it give?
Its relative binding activity is 19 IC50 ratio to reference peptide.

Target: HLA-DR1 (DRB1*0101) (human)
Experiment: competition ELISA, tracer biotin-HA 306-318

How did the relative binding activity turn out when B1 was run?
The relative binding activity was 34 IC50 ratio to reference peptide.

Which relative binding activity does the source give for B10 here?
Its relative binding activity is 1460 IC50 ratio to reference peptide.

B2 was tested. Which relative binding activity did it give?
The relative binding activity was 2 IC50 ratio to reference peptide.

With B11 as the binder, how does the relative binding activity read?
The relative binding activity was 97 IC50 ratio to reference peptide.

How did the relative binding activity turn out when B3 was run?
The relative binding activity was 0.2 IC50 ratio to reference peptide.

B12 was tested. Which relative binding activity did it give?
Its relative binding activity is 1250 IC50 ratio to reference peptide.

B13 was tested. Which relative binding activity did it give?
The relative binding activity was 10 IC50 ratio to reference peptide.

For B9, which relative binding activity is on record?
Its relative binding activity is 3000 IC50 ratio to reference peptide.

For B14, which relative binding activity is on record?
Its relative binding activity is 1300 IC50 ratio to reference peptide.

How did the relative binding activity turn out when B5 was run?
The relative binding activity was 21 IC50 ratio to reference peptide.

How did the relative binding activity turn out when B15 was run?
Its relative binding activity is 53 IC50 ratio to reference peptide.

For B8, which relative binding activity is on record?
Its relative binding activity is 333 IC50 ratio to reference peptide.

B6 was tested. Which relative binding activity did it give?
The relative binding activity was 21 IC50 ratio to reference peptide.

Target: HLA-DR4 (DRB1*0401) (human)
Experiment: competition ELISA, tracer biotin-HA 306-318

B1 was tested. Which relative binding activity did it give?
Its relative binding activity is 401 IC50 ratio to reference peptide.

For B2, which relative binding activity is on record?
Its relative binding activity is 1290 IC50 ratio to reference peptide.

Which relative binding activity does the source give for B7 here?
Its relative binding activity is 457 IC50 ratio to reference peptide.

For B11, which relative binding activity is on record?
The relative binding activity was 492 IC50 ratio to reference peptide.

For B3, which relative binding activity is on record?
The relative binding activity was 1 IC50 ratio to reference peptide.

With B13 as the binder, how does the relative binding activity read?
Its relative binding activity is 6 IC50 ratio to reference peptide.

B4 was tested. Which relative binding activity did it give?
The relative binding activity was 558 IC50 ratio to reference peptide.

For B16, which relative binding activity is on record?
Its relative binding activity is 362 IC50 ratio to reference peptide.

How did the relative binding activity turn out when B14 was run?
The relative binding activity was 1860 IC50 ratio to reference peptide.

How did the relative binding activity turn out when B15 was run?
Its relative binding activity is 1560 IC50 ratio to reference peptide.

Target: HLA-DR11 (DRB1*1101) (human)
Experiment: competition ELISA, tracer biotin-HA 306-318

For B1, which relative binding activity is on record?
The relative binding activity was 48 IC50 ratio to reference peptide.

B2 was tested. Which relative binding activity did it give?
Its relative binding activity is 763 IC50 ratio to reference peptide.

With B7 as the binder, how does the relative binding activity read?
The relative binding activity was 800 IC50 ratio to reference peptide.

How did the relative binding activity turn out when B11 was run?
Its relative binding activity is 1010 IC50 ratio to reference peptide.

Which relative binding activity does the source give for B3 here?
The relative binding activity was 0.3 IC50 ratio to reference peptide.

For B13, which relative binding activity is on record?
Its relative binding activity is 69 IC50 ratio to reference peptide.

For B4, which relative binding activity is on record?
Its relative binding activity is 504 IC50 ratio to reference peptide.

Which relative binding activity does the source give for B14 here?
The relative binding activity was 923 IC50 ratio to reference peptide.

B5 was tested. Which relative binding activity did it give?
The relative binding activity was 94 IC50 ratio to reference peptide.

Which relative binding activity does the source give for B8 here?
Its relative binding activity is 1230 IC50 ratio to reference peptide.

B6 was tested. Which relative binding activity did it give?
Its relative binding activity is 7 IC50 ratio to reference peptide.

Target: HLA-DRB5 (DRB5*0101) (human)
Experiment: competition ELISA, tracer biotin-HA 306-318

With B1 as the binder, how does the relative binding activity read?
Its relative binding activity is 0.1 IC50 ratio to reference peptide.

Which relative binding activity does the source give for B2 here?
The relative binding activity was 26 IC50 ratio to reference peptide.

B7 was tested. Which relative binding activity did it give?
Its relative binding activity is 114 IC50 ratio to reference peptide.

With B3 as the binder, how does the relative binding activity read?
The relative binding activity was 2 IC50 ratio to reference peptide.

B13 was tested. Which relative binding activity did it give?
The relative binding activity was 15 IC50 ratio to reference peptide.

B9 was tested. Which relative binding activity did it give?
The relative binding activity was 215 IC50 ratio to reference peptide.

With B4 as the binder, how does the relative binding activity read?
The relative binding activity was 61 IC50 ratio to reference peptide.

B16 was tested. Which relative binding activity did it give?
The relative binding activity was 292 IC50 ratio to reference peptide.

How did the relative binding activity turn out when B5 was run?
The relative binding activity was 46 IC50 ratio to reference peptide.

For B8, which relative binding activity is on record?
The relative binding activity was 714 IC50 ratio to reference peptide.

For B6, which relative binding activity is on record?
Its relative binding activity is 161 IC50 ratio to reference peptide.

Target: HLA-DRB3 (DRB3*0101) (human)
Experiment: competition ELISA, tracer biotin-LOL 191-210

Which relative binding activity does the source give for B10 here?
The relative binding activity was 2330 IC50 ratio to reference peptide.

Which relative binding activity does the source give for B7 here?
Its relative binding activity is 226 IC50 ratio to reference peptide.

How did the relative binding activity turn out when B5 was run?
The relative binding activity was 37 IC50 ratio to reference peptide.

B15 was tested. Which relative binding activity did it give?
Its relative binding activity is 621 IC50 ratio to reference peptide.

With B8 as the binder, how does the relative binding activity read?
Its relative binding activity is 877 IC50 ratio to reference peptide.

With B6 as the binder, how does the relative binding activity read?
The relative binding activity was 267 IC50 ratio to reference peptide.

Target: HLA-DP401 (DPB1*0401) (human, UniProt P20036 29-222, limits assumed)
Experiment: competition ELISA, tracer biotin-Oxy 271-287

How did the relative binding activity turn out when B7 was run?
Its relative binding activity is 167 IC50 ratio to reference peptide.

Which relative binding activity does the source give for B3 here?
The relative binding activity was 94 IC50 ratio to reference peptide.

Which relative binding activity does the source give for B16 here?
The relative binding activity was 52 IC50 ratio to reference peptide.

How did the relative binding activity turn out when B5 was run?
Its relative binding activity is 6 IC50 ratio to reference peptide.

B15 was tested. Which relative binding activity did it give?
Its relative binding activity is 7 IC50 ratio to reference peptide.

For B6, which relative binding activity is on record?
Its relative binding activity is 20 IC50 ratio to reference peptide.

Target: T1, HLA-DP402 (DPB1*0402) (human, UniProt P20036 29-222, limits assumed)
T1 construct: also called DP*0402
Experiment: competition ELISA, tracer biotin-Oxy 271-287

Which relative binding activity does the source give for B7 here?
The relative binding activity was 378 IC50 ratio to reference peptide.

How did the relative binding activity turn out when B3 was run?
The relative binding activity was 29 IC50 ratio to reference peptide.

How did the relative binding activity turn out when B16 was run?
Its relative binding activity is 49 IC50 ratio to reference peptide.

For B14, which relative binding activity is on record?
The relative binding activity was 239 IC50 ratio to reference peptide.

With B5 as the binder, how does the relative binding activity read?
Its relative binding activity is 18 IC50 ratio to reference peptide.

Which relative binding activity does the source give for B6 here?
The relative binding activity was 19 IC50 ratio to reference peptide.
